Sequences and labels used below:
B5: VirB10/TrwE with a C-terminal StrepII tag (natural protein, Escherichia coli plasmid R388, UniProt O50337 1-395, looked up)
chain: MFGRKKGDVIDAGAELERAEQERIEGEYGASELASERRPHTPGARTLLMVLLCVIAVVLVTLSYKAYKVRGVVEDDDAQPQQVVRQVIPGYTPRPIRPEPENVPEPPQPTTSVPAIQPAPVTQPVRPQPTGPREKTPYELARERMLRSGLTAGSGGGEDLPRPQGGDVPAGGLMGGGGGGGELAEKLQPMRLSGSSAGRLGNRDMLITQGTQLDCVLETRLVTTQPGMTTCHLTRDVYSTSGRVVLLDRGSKVVGFYQGGLRQGQARIFVQWSRIETPSGVVINLDSPGTGPLGEAGLGGWIDRHFWERFGGAIMISLIGDLGDWASRQGSRQGNNSIQFSNTANGVESAAAEALRNSINIPPTLYKNQGERVNILVARDLDFSDVYSLESIPTK

Series [1] deals with VirB4/TrwK (untagged, in the T4SS3-10 complex) (Escherichia coli plasmid R388) (UniProt O50330). In words: negative stain EM reconstruction.
For series [2], the target named is VirB10/TrwE with a C-terminal StrepII tag (Escherichia coli plasmid R388) (UniProt O50337). In words: tandem affinity purification with 125I labelling of tyrosines and SDS-PAGE.
Series [3] concerns the target B5. Described as above.
Series [4] addresses T1, VirB4/TrwK with a C-terminal StrepII tag (Escherichia coli plasmid R388, UniProt O50330 1-823).
T1 sequence (looked up): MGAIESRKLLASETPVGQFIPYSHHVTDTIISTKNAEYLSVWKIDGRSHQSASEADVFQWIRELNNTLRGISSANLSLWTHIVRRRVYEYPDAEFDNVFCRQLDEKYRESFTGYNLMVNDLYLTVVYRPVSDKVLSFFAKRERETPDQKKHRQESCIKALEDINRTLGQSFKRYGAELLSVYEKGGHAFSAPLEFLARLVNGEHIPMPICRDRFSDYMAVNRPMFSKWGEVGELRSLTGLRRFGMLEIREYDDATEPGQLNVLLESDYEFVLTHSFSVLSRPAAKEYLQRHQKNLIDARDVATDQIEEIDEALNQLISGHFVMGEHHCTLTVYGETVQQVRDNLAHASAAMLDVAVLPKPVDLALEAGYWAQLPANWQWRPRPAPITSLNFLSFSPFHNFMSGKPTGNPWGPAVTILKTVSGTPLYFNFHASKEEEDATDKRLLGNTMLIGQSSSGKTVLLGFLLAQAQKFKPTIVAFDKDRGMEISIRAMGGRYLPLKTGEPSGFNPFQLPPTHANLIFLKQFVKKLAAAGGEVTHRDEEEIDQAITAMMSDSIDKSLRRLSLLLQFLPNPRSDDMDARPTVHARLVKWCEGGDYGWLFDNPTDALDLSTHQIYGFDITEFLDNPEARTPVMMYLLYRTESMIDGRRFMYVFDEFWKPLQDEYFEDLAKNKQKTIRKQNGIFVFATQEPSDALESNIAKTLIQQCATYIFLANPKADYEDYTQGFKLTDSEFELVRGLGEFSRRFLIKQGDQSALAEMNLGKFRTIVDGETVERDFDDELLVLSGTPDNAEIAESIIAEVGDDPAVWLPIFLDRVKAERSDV
In words: SEC. For orientation: In gel filtration, larger molecules generally elute earlier.

Series [5] deals with the molecule itself. In words: co-purification.

Consider seven molecules from PMC3998870 (Nature, 2014).

As for “VirB4/TrwK (untagged, in the T4SS3-10 complex) (from UniProt O50330 1-823) (enzyme)”, the stoichiometry N (in general, the number of molecules, sites or subunits per partner or assembly) in series [1] stood at 6.

In series [2], “VirB6/TrwI with an N-terminal His6 tag (natural protein)” gave a copies in the complex, calibrated on 14 copies of VirB10/TrwE of 23.8 copies.

B1: VirB4/TrwK (untagged, in the T4SS3-10 complex) (enzyme, Escherichia coli plasmid R388, UniProt O50330 1-823, looked up)
chain: MGAIESRKLLASETPVGQFIPYSHHVTDTIISTKNAEYLSVWKIDGRSHQSASEADVFQWIRELNNTLRGISSANLSLWTHIVRRRVYEYPDAEFDNVFCRQLDEKYRESFTGYNLMVNDLYLTVVYRPVSDKVLSFFAKRERETPDQKKHRQESCIKALEDINRTLGQSFKRYGAELLSVYEKGGHAFSAPLEFLARLVNGEHIPMPICRDRFSDYMAVNRPMFSKWGEVGELRSLTGLRRFGMLEIREYDDATEPGQLNVLLESDYEFVLTHSFSVLSRPAAKEYLQRHQKNLIDARDVATDQIEEIDEALNQLISGHFVMGEHHCTLTVYGETVQQVRDNLAHASAAMLDVAVLPKPVDLALEAGYWAQLPANWQWRPRPAPITSLNFLSFSPFHNFMSGKPTGNPWGPAVTILKTVSGTPLYFNFHASKEEEDATDKRLLGNTMLIGQSSSGKTVLLGFLLAQAQKFKPTIVAFDKDRGMEISIRAMGGRYLPLKTGEPSGFNPFQLPPTHANLIFLKQFVKKLAAAGGEVTHRDEEEIDQAITAMMSDSIDKSLRRLSLLLQFLPNPRSDDMDARPTVHARLVKWCEGGDYGWLFDNPTDALDLSTHQIYGFDITEFLDNPEARTPVMMYLLYRTESMIDGRRFMYVFDEFWKPLQDEYFEDLAKNKQKTIRKQNGIFVFATQEPSDALESNIAKTLIQQCATYIFLANPKADYEDYTQGFKLTDSEFELVRGLGEFSRRFLIKQGDQSALAEMNLGKFRTIVDGETVERDFDDELLVLSGTPDNAEIAESIIAEVGDDPAVWLPIFLDRVKAERSDV
Take B1: in series [3], the “copies in the complex, calibrated on 14 copies of VirB10/TrwE” value (shortened to “copies in the complex … of VirB10/TrwE”) was 11.5 copies.

B2: VirB5/TrwJ (natural protein, Escherichia coli plasmid R388, UniProt O50331 23-226, looked up)
chain: QGIPVFDGTRALDFVQQFARMKEQLDTAKDQLAEAQRMYEAVTGGRGLGDLMRNAQLREYLPDDLRTVYDSANGGGYSGISGSINDILRDERLNGSVADMRRSIEERSRTARTTDKAVGCGPTKGHSNASRRLKDEISRTQDQKAIEELQARIAGEQAAIQNETTKLQMIAQLRQAEQALISEQRRERNMPILSSGNQGMPTIQ
B2: the “copies in the complex … of VirB10/TrwE” value in series [3] was 11.9 copies.

B3: VirB8/TrwG (natural protein, Escherichia coli plasmid R388, UniProt O50335 1-231, looked up)
chain: MSKKQPKPVKAEQLKSYYEESRGLERDLIGEFVKSRKTAWRVATASGLFGLLGMVCGIVGFSQPAPAPLVLRVDNATGAVDVVTTLREHESSYGEVVDTYWLNQYVLNREAYDYNTIQMNYDTTALLSAPAVQQDYYKLFDGSNARDRVLGNKARITVRVRSIQPNGRGQATVRFTTQQHNSNGTVERPQHQIATIGYTYIGAPMRSSDRLLNPLGFQVTSYRADPEILNN
As to B3, the “copies in the complex … of VirB10/TrwE” value in series [3] worked out at 12.6 copies.

B4: VirB3/TrwM (natural protein, Escherichia coli plasmid R388, UniProt O50329 1-104, looked up)
chain: MKPPQQQHEAFPLFKGATRLPTILGEPMIPLMAMVMGVAVIALTVSIWWWALVPPLWFIMAQITKNDDKAFRIWWLWIDTKFRNRNKGFWGASSYSPANYRKRR
As for B4, the “stoichiometry N” value in series [4] was 1. Turning to B5, the “stoichiometry N” value in series [5] stood at 14.
